Values quoted from earlier work in PMC12186298, “Phase 1 clinical trial of eneboparatide, a novel PTH receptor 1 agonist” (Endocrine Connections, 2025).

System: patients with hypoparathyroidism
Conditions: not associated with increased elimination of phosphorus in urine; cited from earlier work
Protocol: Hyperphosphataemia enhances the risk of long-term development of cardiovascular diseases that is particularly important in patients with renal insufficiency, but also exists in patients with normal renal function ([16]). […] This decrease in sPh was apparent after 14 days of treatment in connection with a reduction in the rate of renal reabsorption of phosphorus. The impact of eneboparatide on sPh was primarily observed within the first 12 h after dosing.

B1: PTH(1–84): parathyroid hormone (1–84) therapy, cited comparator (protein, UniProt P01270 32-115, looked up)
Parathyroid hormone: SVSEIQLMHNLGKHLNSMERVEWLRKKLQDVHNFVALGAPLAPRDAGSQRPRKKEDNVLVESHEKSLGEADKADVNVLTKAKSQ
modifications: Parathyroid hormone
notes: parathyroid hormone (1–84) therapy, cited comparator
For B1, the “sPh after the onset of therapy” value is listed as “decreased rapidly and significantly”.
